Source: paper PMC4851429 (Structure (London, England : 1993), 2015)

B1: biotinylated human LPHN3 olfactomedin domain (residues V132-G392) (domain or fragment, UniProt Q9HAR2 132-392, looked up)
chain: VFLCPGLLKGVYQSEHLFESDHQSGAWCKDPLQASDKIYYMPWTPYRTDTLTEYSSKDDFIAGRPTTTYKLPHRVDGTGFVVYDGALFFNKERTRNIVKFDLRTRIKSGEAIIANANYHDTSPYRWGGKSDIDLAVDENGLWVIYATEQNNGKIVISQLNPYTLRIEGTWDTAYDKRSASNAFMICGILYVVKSVYEDDDNEATGNKIDYIYNTDQSKDSLVDVPFPNSYQYIAAVDYNPRDNLLYVWNNYHVVKYSLDFG
modifications: biotin (biotinylated; residue not stated)
B2: human LPHN3 olfactomedin domain (residues V132-G392) (domain or fragment, UniProt Q9HAR2 132-392, looked up)
chain: B1 chain
B3: human FLRT3 LRR domain (residues K29-D357) (domain or fragment, UniProt Q9NZU0 29-357, looked up)
chain: KSCPSVCRCDAGFIYCNDRFLTSIPTGIPEDATTLYLQNNQINNAGIPSDLKNLLKVERIYLYHNSLDEFPTNLPKYVKELHLQENNIRTITYDSLSKIPYLEELHLDDNSVSAVSIEEGAFRDSNYLRLLFLSRNHLSTIPWGLPRTIEELRLDDNRISTISSPSLQGLTSLKRLVLDGNLLNNHGLGDKVFFNLVNLTELSLVRNSLTAAPVNLPGTNLRKLYLQDNHINRVPPNAFSYLRQLYRLDMSNNNLSNLPQGIFDDLDNITQLILRNNPWYCGCKMKWVRDWLQSLPVKVNVRGLMCQAPEKVRGMAIKDLNAELFDCKD
modifications: N-linked glycosylation observed at N226

Columns and labels:
[1] = target: B3; test: flow cytometry on cells
[2] = target: B3; test: BLI
SEC = target: the molecule itself; test: SEC

Binder: B1
binding result [1]: binds

Binder: B2
Kd [2]: 220 to 260 nM

Binder: B3
stoichiometry N (SEC): 2
